Measurements as given in US20240409935A1, “Atg8ylation coordinates stress granule formation and mTOR inactivation in response to lysosomal damage” (priority 2023, published 2024).

Target: T1, GST-tagged NUFIP2 (Homo sapiens (Human)) (UniProt Q7Z417)
T1 sequence: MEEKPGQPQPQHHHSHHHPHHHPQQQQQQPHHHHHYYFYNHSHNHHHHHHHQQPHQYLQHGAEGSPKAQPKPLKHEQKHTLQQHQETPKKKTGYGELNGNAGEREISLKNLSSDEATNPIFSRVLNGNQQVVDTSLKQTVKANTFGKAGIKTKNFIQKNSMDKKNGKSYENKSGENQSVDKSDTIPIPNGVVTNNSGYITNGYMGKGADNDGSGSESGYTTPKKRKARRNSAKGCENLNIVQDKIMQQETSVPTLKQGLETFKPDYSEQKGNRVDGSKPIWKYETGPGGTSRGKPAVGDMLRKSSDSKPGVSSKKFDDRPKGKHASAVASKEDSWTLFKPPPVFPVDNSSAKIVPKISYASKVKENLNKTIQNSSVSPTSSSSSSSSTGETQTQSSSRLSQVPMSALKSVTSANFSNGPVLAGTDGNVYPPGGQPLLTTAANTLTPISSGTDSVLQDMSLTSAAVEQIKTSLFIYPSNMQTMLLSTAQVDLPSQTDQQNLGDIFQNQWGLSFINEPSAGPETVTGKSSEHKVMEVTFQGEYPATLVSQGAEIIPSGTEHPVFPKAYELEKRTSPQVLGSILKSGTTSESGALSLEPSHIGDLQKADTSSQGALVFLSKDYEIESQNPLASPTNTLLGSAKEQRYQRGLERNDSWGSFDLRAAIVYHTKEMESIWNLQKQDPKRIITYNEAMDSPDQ
Assay: GST pulldown of in vitro translated radiolabeled Myc-G3BP1 with GST-NUFIP2

Myc-tagged G3BP1 (in vitro translated and radiolabeled), sequence (Q13283 whole entry): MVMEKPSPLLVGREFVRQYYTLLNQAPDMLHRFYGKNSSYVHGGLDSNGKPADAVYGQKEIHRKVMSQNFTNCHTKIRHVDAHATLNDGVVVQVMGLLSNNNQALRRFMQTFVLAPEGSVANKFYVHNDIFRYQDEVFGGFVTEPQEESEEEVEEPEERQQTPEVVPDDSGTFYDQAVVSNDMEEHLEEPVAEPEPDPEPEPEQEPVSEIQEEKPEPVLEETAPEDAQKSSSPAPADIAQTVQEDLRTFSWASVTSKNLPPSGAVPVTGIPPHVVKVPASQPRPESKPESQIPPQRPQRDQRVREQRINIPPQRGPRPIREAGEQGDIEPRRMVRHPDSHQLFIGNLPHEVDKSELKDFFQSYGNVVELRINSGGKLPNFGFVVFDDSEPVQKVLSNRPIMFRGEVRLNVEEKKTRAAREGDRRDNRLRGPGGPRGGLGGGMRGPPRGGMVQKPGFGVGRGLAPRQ

Myc-tagged G3BP1 (in vitro translated and radiolabeled) (from UniProt Q13283 1-466)
% binding (percent of the input bound): 60%
